Results from patent US12269859B2, “Synthetic immune receptors and methods of use thereof” (Angeles Therapeutics, Inc., priority 2016, dated 2025).

System: target antigen-expressing cell line
Test: Jurkat NFAT-GFP assay, coculture with target cell lines expressing the respective target antigen (summary Table 10A)
Assay type: cell-based, human
Parameters: key: The signs +/−, +, 2+ etc. after the name of the cell lines indicate the relative degree of positivity on the Jurkat-NFAT-GFP assay as measured by the % GFP positive cells; +: relative degree of positivity on the Jurkat-NFAT-GFP assay as measured by the % GFP positive cells; 2+: relative degree of positivity on the Jurkat-NFAT-GFP assay as measured by the % GFP positive cells
Conditions: relative % GFP positive cells; for NFAT-GFP ASSAY Positive Cell lines: NALM6: SIR-expressing Jurkat-NFAT-GFP cells cocultured with NALM6; for NFAT-GFP ASSAY Positive Cell lines: RAJI: SIR-expressing Jurkat-NFAT-GFP cells cocultured with RAJI
Outline: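 Coculture of SIR-bearing Jurkat NFAT-GFP reporters with target cells, ~1:2 E:T, ~4–18 h. FACS quantified % GFP+ cells, ranked semi-quantitatively against parental Jurkat-NFAT-GFP.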

B1: 110217-A03 (protein)
chain: MALPVTALLLPLALLLHAARPDVVMTQSPSSLSASVGDRVTITCRASQDISKYLNWYQQKPGKAPKLLIYHTSRLHSGVPSRFSGSGSGTDFTLTISSLQPEDFATYYCQQGNTLPYTFGGGTKVEIKLEDLKNVFPPEVAVFCPSEAEISHTQKATLVCLATGFYPDHVELSWWVNGKEVHSGVSTDPQPLKEQPALNDSRYCLSSRLRVSATFWQNPRNHFRCQVQFYGLSENDEWTQDRAKPVTQIVSAEAWGRADCGFTSESYQQGVLSATILYEILLGKATLYAVLVSALVLMAMVKRKDSRGRAKRSGSGATNFSLLKQAGDVEENPGPTSMDWIWRILFLVGAATGAHSFEQVQLQESGPGLVKPSQTLSLTCTVSGVSLPDYGVSWIRQPPGKGLEWIGVIWGSETTYYNSALKSRVLISVDTSKNQVSLKLSSVTAADTAVYYCARHYYYGGSYAMDYWGQGTTVTVSSTRIQNPDPAVYQLRDCKSSDKSVCLFTDFDSQTNVSQSKDSDVYITDKTVLDMRSMDFKSNSAVAWSNKSDFACANAFNNSIIPEDTFFPSPESSCDVKLVEKSFETDTNLNFQNLSVIGFRILLLKVAGFNLLMTLRLWSS
NFAT-GFP ASSAY Positive Cell lines: NALM6: (+/−)
NFAT-GFP ASSAY Positive Cell lines: RAJI: RAJI (+/−), NALM6

B2: 110217-C03 (protein)
chain: MALPVTALLLPLALLLHAARPDVVMTQSPSSLSASVGDRVTITCRASQDISKYLNWYQQKPGKAPKLLIYHTSRLHSGVPSRFSGSGSGTDFTLTISSLQPEDFATYYCQQGNTLPYTFGGGTKVEIKLEDLKNVFPPEVAVFEPSEAEISHTQKATLVCLATGFYPDHVELSWWVNGKEVHSGVSTDPQPLKEQPALNDSRYCLCSRLRVSATFWQNPRNHFRCQVQFYGLSENDEWTQDRAKPVTQIVSAEAWGRADCGFTSESYQQGVLSATILYEILLGKATLYAVLVSALVLMAMVKRKDSRGRAKRSGSGATNFSLLKQAGDVEENPGPTSMDWIWRILFLVGAATGAHSFEQVQLQESGPGLVKPSQTLSLTCTVSGVSLPDYGVSWIRQPPGKGLEWIGVIWGSETTYYNSALKSRVLISVDTSKNQVSLKLSSVTAADTAVYYCARHYYYGGSYAMDYWGQGTTVTVSSTRIQNPDPAVYQLRDSKSSDKSVCLFTDFDSQTNVSQSKDSDVYICDKTVLDMRSMDFKSNSAVAWSNKSDFACANAFNNSIIPEDTFFPSPESSCDVKLVEKSFETDTNLNFQNLSVIGFRILLLKVAGFNLLMTLRLWSS
NFAT-GFP ASSAY Positive Cell lines: NALM6: (+/−)
NFAT-GFP ASSAY Positive Cell lines: RAJI: RAJI (+/−), NALM6

B3: 110217-D01 (protein)
chain: MALPVTALLLPLALLLHAARPDVVMTQSPSSLSASVGDRVTITCRASQDISKYLNWYQQKPGKAPKLLIYHTSRLHSGVPSRFSGSGSGTDFTLTISSLQPEDFATYYCQQGNTLPYTFGGGTKVEIKLEDLKNVFPPEVAVFEPCEAEISHTQKATLVCLATGFYPDHVELSWWVNGKEVHSGVSTDPQPLKEQPALNDSRYCLSSRLRVSATFWQNPRNHFRCQVQFYGLSENDEWTQDRAKPVTQIVSAEAWGRADCGFTSESYQQGVLSATILYEILLGKATLYAVLVSALVLMAMVKRKDSRGRAKRSGSGATNFSLLKQAGDVEENPGPTSMDWIWRILFLVGAATGAHSFEQVQLQESGPGLVKPSQTLSLTCTVSGVSLPDYGVSWIRQPPGKGLEWIGVIWGSETTYYNSALKSRVLISVDTSKNQVSLKLSSVTAADTAVYYCARHYYYGGSYAMDYWGQGTTVTVSSTRIQNPDPAVCQLRDSKSSDKSVCLFTDFDSQTNVSQSKDSDVYITDKTVLDMRSMDFKSNSAVAWSNKSDFACANAFNNSIIPEDTFFPSPESSCDVKLVEKSFETDTNLNFQNLSVIGFRILLLKVAGFNLLMTLRLWSS
NFAT-GFP ASSAY Positive Cell lines: NALM6: (+/−)
NFAT-GFP ASSAY Positive Cell lines: RAJI: RAJI (+/−), NALM6

B4: 110217-B04 (protein)
chain: MALPVTALLLPLALLLHAARPDVVMTQSPSSLSASVGDRVTITCRASQDISKYLNWYQQKPGKAPKLLIYHTSRLHSGVPSRFSGSGSGTDFTLTISSLQPEDFATYYCQQGNTLPYTFGGGTKVEIKLEDLKNVFPPEVAVFEPSEAEISHTQKATLVCLATGFYPDHVELSWWVNGKEVHSGVSTCPQPLKEQPALNDSRYCLSSRLRVSATFWQNPRNHFRCQVQFYGLSENDEWTQDRAKPVTQIVSAEAWGRADCGFTSESYQQGVLSATILYEILLGKATLYAVLVSALVLMAMVKRKDSRGRAKRSGSGATNFSLLKQAGDVEENPGPTSMDWIWRILFLVGAATGAHSFEQVQLQESGPGLVKPSQTLSLTCTVSGVSLPDYGVSWIRQPPGKGLEWIGVIWGSETTYYNSALKSRVLISVDTSKNQVSLKLSSVTAADTAVYYCARHYYYGGSYAMDYWGQGTTVTVSSTRIQNPDPAVYQLRDSKSSDKSVCLFTDFDSQTNVSQSKDSDVYICDKTVLDMRSMDFKSNSAVAWSNKSDFACANAFNNSIIPEDTFFPSPESSCDVKLVEKSFETDTNLNFQNLSVIGFRILLLKVAGFNLLMTLRLWSS
NFAT-GFP ASSAY Positive Cell lines: NALM6: (+/−)
NFAT-GFP ASSAY Positive Cell lines: RAJI: RAJI (+/−), NALM6

B5: 032216-C04 (protein)
chain: MALPVTALLLPLALLLHAARPDIVLTQSPATLSLSPGDRATISCRASESVTILGSHLIYWYQQKPGQPPRLLIQLASNVQTGVPARFSGSGSRTDFTLTISSVEPEDFAVYYCLQSRTIPRTFGQGTKLEIKRLEGKPIPNPLLGLDSTGSGEDLKNVFPPEVAVFEPSKAEIAHTQKATLVCLATGFYPDHVELSWWVNGKEVHSGVCTDPQPLKEQPALNDSRYCLSSRLRVSATFWQNPRNHFRCQVQFYGLSENDEWTQDRAKPVTQIVSAEAWGRADCGITSASYHQGVLSATILYEILLGKATLYAVLVSALVLMAMVKRKDSRGRAKRSGSGATNFSLLKQAGDVEENPGPTSMDWIWRILFLVGAATGAHSFEQVQLVQSGPEVKKPGESVKISCKASGYTFRHYSMNWVKQAPGQGLKWMGRINTESGVPIYADDFKGRFSFTVDTSASTAYLEISSLTSEDTAVYFCSNDYLYSLDFWGQGTTLTVSSTREQKLISEEDGSGIQNPDPAVYQLRDSKSSDKSVCLFTDFDSQTNVSQSKDSDVYITDKCVLDMRSMDFKSNSAVAWSNKSDFACANAFNNSIIPEDTFFPSSDVPCDVKLVEKSFETDTNLNFQNLSVIGFRILLLKVAGFNLLMTLRLWSSRAKRSGSGVKQTLNFDLLKLAGDVESNPGPSRGHMTEYKPTVRLATRDDVPRAVRTLAAAFADYPATRHTVDPDRHIERVTELQELFLTRVGLDIGKVWVADDGAAVAVWTTPESVEAGAVFAEIGPRMAELSGSRLAAQQQMEGLLAPHRPKEPAWFLATVGVSPDHQGKGLGSAVVLPGVEAAERAGVPAFLETSAPRNLPFYERLGFTVTADVEVPEGPRTWCMTRKPGA
modifications: Polynucleotide encoding a Synthetic Immune Receptor (SIR)
NFAT-GFP ASSAY Positive Cell lines: RAJI: 2+

B6: 102116-D01 (protein)
chain: MALPVTALLLPLALLLHAARPLEGKPIPNPLLGLDSTGSGEDLKNVFPPEVAVFEPSKAEIAHTQKATLVCLATGFYPDHVELSWWVNGKEVHSGVCTDPQPLKEQPALNDSRYCLSSRLRVSATFWQNPRNHFRCQVQFYGLSENDEWTQDRAKPVTQIVSAEAWGRADCGITSASYHQGVLSATILYEILLGKATLYAVLVSALVLMAMVKRKDSRGRAKRSGSGATNFSLLKQAGDVEENPGPTSTMALPVTALLLPLALLLHAARPQAVLTQPPSASGTPGQRVTISCSGSSSNIGSYTVSWYQQLPGTAPKFLIYSNNQRPSGVPDRFSGSKSGTSASLAISGLQSEDEADYYCAAWDDSLNGYVFGTGTKVTVLGGGGGSGGGGSGGGGSEVQLVQSGAEVKKPGESLKISCKGSGYDFTTYWIGWVRQMPGKGLEWMGIIYPGDSDTRYSPSVRGRVTISADKSINTAYLQWSSLEASDTAMYYCARMWTFSQDGWGQGTLVTVSSTREQKLISEEDGSGIQNPDPAVYQLRDSKSSDKSVCLFTDFDSQTNVSQSKDSDVYITDKCVLDMRSMDFKSNSAVAWSNKSDFACANAFNNSIIPEDTFFPSSDVPCDVKLVEKSFETDTNLNFQNLSVIGFRILLLKVAGFNLLMTLRLWSSRAKRSGSGVKQTLNFDLLKLAGDVESNPGPSRGHMTEYKPTVRLATRDDVPRAVRTLAAAFADYPATRHTVDPDRHIERVTELQELFLTRVGLDIGKVWVADDGAAVAVWTTPESVEAGAVFAEIGPRMAELSGSRLAAQQQMEGLLAPHRPKEPAWFLATVGVSPDHQGKGLGSAVVLPGVEAAERAGVPAFLETSAPRNLPFYERLGFTVTADVEVPEGPRTWCMTRKPGA
modifications: Synthetic Immune Receptor (SIR)
NFAT-GFP ASSAY Positive Cell lines: L363 (SIR-expressing Jurkat-NFAT-GFP cells cocultured with L363): L363 (2+), U266
NFAT-GFP ASSAY Positive Cell lines: U266 (SIR-expressing Jurkat-NFAT-GFP cells cocultured with U266): (2+)

B7: 092517-F01 (protein)
chain: MALPVTALLLPLALLLHAARPLEGKPIPNPLLGLDSTGSGEDLKNVFPPEVAVFEPSKAEIAHTQKATLVCLATGFYPDHVELSWWVNGKEVHSGVCTDPQPLKEQPALNDSRYCLSSRLRVSATFWQNPRNHFRCQVQFYGLSENDEWTQDRAKPVTQIVSAEAWGRADCGITSASYHQGVLSATILYEILLGKATLYAVLVSALVLMAMVKRKDSRGRAKRSGSGATNFSLLKQAGDVEENPGPTSMALPVTALLLPLALLLHAARPDVVMTQSPSSLSASVGDRVTITCRASQDISKYLNWYQQKPGKAPKLLIYHTSRLHSGVPSRFSGSGSGTDFTLTISSLQPEDFATYYCQQGNTLPYTFGGGTKVEIKGGGGSGGGGSGGGGSQVQLQESGPGLVKPSQTLSLTCTVSGVSLPDYGVSWIRQPPGKGLEWIGVIWGSETTYYNSALKSRVLISVDTSKNQVSLKLSSVTAADTAVYYCARHYYYGGSYAMDYWGQGTTVTVSSTREQKLISEEDGSGIQNPDPAVYQLRDSKSSDKSVCLFTDFDSQTNVSQSKDSDVYITDKCVLDMRSMDFKSNSAVAWSNKSDFACANAFNNSIIPEDTFFPSSDVPCDVKLVEKSFETDTNLNFQNLSVIGFRILLLKVAGFNLLMTLRLWSSRAKRSGSGVKQTLNFDLLKLAGDVESNPGPSRGHMTEYKPTVRLATRDDVPRAVRTLAAAFADYPATRHTVDPDRHIERVTELQELFLTRVGLDIGKVWVADDGAAVAVWTTPESVEAGAVFAEIGPRMAELSGSRLAAQQQMEGLLAPHRPKEPAWFLATVGVSPDHQGKGLGSAVVLPGVEAAERAGVPAFLETSAPRNLPFYERLGFTVTADVEVPEGPRTWCMTRKPGA
NFAT-GFP ASSAY Positive Cell lines: NALM6: RAJI (+), NALM6 (+)
NFAT-GFP ASSAY Positive Cell lines: RAJI: RAJI (+), NALM6 (+)
